Biological target: T1, ARNO(wt) (Homo sapiens, UniProt Q99418)
T1 construct: i) 1-400aa, full length ARNO(wt); GST (N); made in house; host or cells: E. coli BL21(DE3)
T1 sequence (Q99418 1-400): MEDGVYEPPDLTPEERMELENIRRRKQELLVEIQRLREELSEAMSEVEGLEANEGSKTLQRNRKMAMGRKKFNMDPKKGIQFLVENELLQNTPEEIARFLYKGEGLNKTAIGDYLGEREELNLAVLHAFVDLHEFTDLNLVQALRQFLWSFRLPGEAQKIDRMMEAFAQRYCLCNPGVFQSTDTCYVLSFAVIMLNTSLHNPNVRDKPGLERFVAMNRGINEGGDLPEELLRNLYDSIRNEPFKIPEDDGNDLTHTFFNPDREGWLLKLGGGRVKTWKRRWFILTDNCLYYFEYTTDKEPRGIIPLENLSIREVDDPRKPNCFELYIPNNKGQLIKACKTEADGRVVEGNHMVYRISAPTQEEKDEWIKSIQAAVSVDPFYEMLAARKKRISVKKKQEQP
Experiment: surface plasmon resonance (BIAcore T100) kinetic analysis a2N(wt)/ARNO(wt)
Format: binding
From the text: 6A, Kinetic analysis and estimation of a dissociation constant (KD) for interaction between full-length a2N(wt) and ARNO(wt) proteins. Sensorgrams for the binding of recombinant a2N-6His immobilized as ligand on the sensor chip, with various concentrations of 6His-ARNO as analyte are shown as follows. The responses on the sensorgram are designated in resonance units (RU). […] 6B, Kinetic analysis and estimation of KD for interaction between a2N-01 peptide and Sec7-domain of ARNO. Sensorgrams for the binding of a2N-01 peptide immobilized as ligand on the sensor chip, with various concentrations of Sec7-domain as analyte are shown as follows. The responses on the sensorgram are designated in resonance units (RU).
All reagents, including buffers, sensor chips and the amine coupling kit, were obtained from GE Healthcare. For kinetic analysis of the binding of ARNO(wt) with a2N(wt), purified 6His-a2N (5 μg/ml) in 10 mM sodium acetate (pH 4.0) was immobilized at 80 response units (RU) on a CM4 sensor chip using an amine coupling kit according to the manufacturer's instructions. The same kit was used to perform blank immobilization to create a reference surface on the same chip. Samples of purified GST-ARNO(wt) at concentrations ranging from 0.25-4 μM were injected for 6 min over active and reference surfaces at a flow rate of 30 μl/min in NBS-EP, 1 mM DTT running buffer (10 mM Hepes, pH 7.4, 150 mM NaCl, 3 mM EDTA, 0.05% Surfactant P20, 1 mM DTT). For kinetic analysis of the binding of the ARNO Sec7-domain with a2N-01 peptide, neutravidin (10 μg/ml) in 10 mM sodium acetate (pH 5.0) was immobilized at about 1200 RU on two surfaces of a CM4 sensor chip using an amine coupling kit. Following that, biotinylated a2N-01 peptide (50 RU) and amine-PEG3-biotin (25 RU) were irreversibly captured by neutravidin to create active and a reference surfaces, respectively. Purified Sec7-6His recombinant protein was injected for 3.5 min over active and reference surfaces at concentrations ranging from 0.05-1 μM and a flow rate of 100 μl/min in NBS-EP, 1 mM DTT running buffer. Dissociation of the complexes was monitored for 10 min, and then the regeneration of the sensor surfaces was performed using 0.05% SDS with 1-min injection in the running buffer at a 20 μl/min flow rate. […] The dissociation constant (KD) was determined from the kon/koff values. To estimate affinity of interaction the corresponding free energy of binding ΔGbind=RTlnKD was calculated as previously described (Marles et al., Mol Cell 14 (2004) 813-823).
Specific concentration-dependent responses were obtained for both interactions. […] Calculated free energies for a2N(wt)/ARNO(wt) and a2N-01/Sec7 binding are −8.86 kcal mol^−1 and −8.81 kcal mol^−1, respectively (Marles et al., Mol Cell 14 (2004) 813-823). […]

[1] = a2N immobilized, ARNO as analyte, 25° C.

Kd (a2N immobilized on sensor chip, ARNO as analyte, 25° C., bivalent analyte isotherm, read-out: dissociation constant KD): 313 nM
association rate constant (kon) [1]: 4.77×10^3 M^−1S^−1
dissociation rate constant (koff) [1]: 14.95×10^−4 S^−1
calculated free energy of binding (ΔGbind=RTlnKD): -8.86 kcal/mol
B1: a2N: recombinant N-terminal cytosolic tail, amino acid residues 1-402 of mouse V-ATPase a2-subunit (protein)
chain: MGSLFRSESMCLAQLFLQSGTAYECLSALGEKGLVQFRDLNQNVSSFQRKFVGEVKRCEELERILVYLVQEITRADIPLPEGEASPPAPPLKHVLEMQEQLQKLEVELREVTKNKEKLRKNLLELVEYTHMLRVTKTFLKRNVEFEPTYEEFPALENDSLLDYSCMQRLGAKLGFVSGLIQQGRVEAFERMLWRACKGYTIVTYAELDECLEDPETGEVIKWYVFLISFWGEQIGHKVKKICDCYHCHIYPYPNTAEERREIQEGLNTRIQDLYTVLHKTEDYLRQVLCKAAESVCSRVVQVRKMKAIYHMLNMCSFDVTNKCLIAEVWCPEVDLPGLRRALEEGSRESGATIPSFMNTIPTKETPPTLIRTNKFTEGFQNIVDAYGVGSYREVNPALFTII
modifications: left off: small tags and cut ends
notes: recombinant N-terminal cytosolic tail, amino acid residues 1-402 of mouse V-ATPase a2-subunit

Source: US20140162285A1, “Methods of Modulating Vesicular Trafficking” (The General Hospital Corporation, priority 2009, published 2014)
